Experimental data from PMC5397175.

Tests used:
[1] = target: T1, SLM2 (T-STAR) STAR domain (UniProt O75525); experiment: fluorescence polarization; conditions: FP buffer, salt, pH and temperature not given in the material; SD from three independent experiments
T1 sequence: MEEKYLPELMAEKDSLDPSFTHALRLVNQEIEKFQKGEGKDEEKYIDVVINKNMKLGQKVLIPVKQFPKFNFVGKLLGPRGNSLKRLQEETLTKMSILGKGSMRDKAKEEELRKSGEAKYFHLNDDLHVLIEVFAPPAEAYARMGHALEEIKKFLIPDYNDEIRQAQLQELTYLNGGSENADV

Sam68 STAR domain = Sam68 STAR domain (UniProt Q07666); experiment: fluorescence polarization; conditions: FP buffer, salt, pH and temperature not given in the material; SD from three independent experiments
Sequence of Sam68 STAR domain (Q07666 97-283): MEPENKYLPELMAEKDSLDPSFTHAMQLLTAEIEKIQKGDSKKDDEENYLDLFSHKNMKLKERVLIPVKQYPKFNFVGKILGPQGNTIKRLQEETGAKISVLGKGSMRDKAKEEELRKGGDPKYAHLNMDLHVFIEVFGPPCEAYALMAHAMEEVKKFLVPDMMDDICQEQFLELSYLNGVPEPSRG

Sequence: CCCACAGUUUAAAAUUUGAUAAAAUUU [Stxbp5l 1]
- Kd [1]: 24 µM
- Kd (Sam68 STAR domain): 15.5 µM

Sequence: CCCUUACAUUUAAAAGAUGAUUUAAAAA [Stxbp5l 2]
- Kd [1]: 18.2 µM
- Kd (Sam68 STAR domain): 13.8 µM
